Data from the supplement of paper PMC9170038.

Test system: MS2 coat protein
Experiment: apparent KD of MS2 coat protein; designed switch direction (-1 OFF switch, 1 ON switch): -1; higher = weaker reporter binding
Method in brief: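 Normalised cluster fluorescence was curve-fitted, and each design's median over clusters is its apparent KD. Before this, SNAP-549-labelled MS2 coat protein was titrated from 0.7 or 1.5 nM, doubling to 3 µM, over RNA switches transcribed on Illumina chips by stalled E. coli RNA polymerase. Titrations had no input, 200 uM small-molecule ligand, or an oligonucleotide input, and steps lasted 0.8–1.5 h (lowest) to 10–20 min (highest).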

[1] = input ligand: microRNA oligo, concentration not stated
[2] = Eterna round: R95, input ligand: FMN 200 uM
[3] = Eterna round: R95, input ligand: microRNA oligo, concentration not stated
[4] = Eterna round: R95, input ligand: none

Row | Sequence | apparent KD of MS2 coat protein (input ligand: FMN 200 uM) [nM] | apparent KD of MS2 coat protein (input ligand: none) [nM] | apparent KD of MS2 coat protein [3] [nM] | also measured
1 | GUGCUAUAGGAAGGAUAUACUUCAUUAUUUAGACAUGAGGAUCACCCAUGUAACCUUAUGUAUGUGUAGAAGGUCCAUAGCUUA (Eterna round: R96, puzzle: Exclusion NG 2) | 93.2 | 38.8 |  | apparent KD of MS2 coat protein [1]: 35.1 nM
2 | GUGGAACAUGAGGAUCACCCAUGUGAGGAUAUGUGAGAAGGAUUUGAGAGGGAGAGGGACAGAAGGCACUAGGA [JR_Exclu1_Sub084] (puzzle: Exclusion 1) |  |  | 33.6 | apparent KD of MS2 coat protein [2]: 32.7 nM; apparent KD of MS2 coat protein [4]: 41.9 nM
3 | GUGGCAUGAGGAUAUCGAGGUUAGUACAUGAGGAUCACCCAUGUUAUCCAGGUGUCGGUUCGAGAAGGCAUGGCAC [LRO-Ex5-13] (puzzle: Exclusion 5) |  |  | 250 | 
4 | GUGGUACAUGAGGAUCACCCAUGUAAGGAUAUAGUCGGCUGGUGGUCGCGGGUGGUGGCUAGAAGGUGCGUGCG [-19.6, -18.2 kcal, A 19%] (Eterna round: R97, puzzle: Exclusion 1) | 101 | 114 |  | 
5 | GUGUACAGAGGAUAUACUCGAAUCUAGCGAAGCUAGGUUUGACAUGAGGAUCACCCAUGUAGAAGGCUGUACAC [Dot plot directed A] (puzzle: Exclusion 2) |  |  | 13.8 | 
6 | GUGUACAGAGGAUAUGCUGGAAUCUAGCGAAGCUAGGUUCCACAUGAGGAUCACCCAUGUAGAAGGCUGUACAC [Dot plot directed A v4] (puzzle: Exclusion 2) |  |  | 19.4 | 
7 | GUGUAGAUAGGAUAUACAUGAGUCUAGCGAAGCUAGAUUCUACAUGAGGAUCACCCAUGUAGAAGGGUCUACAC [Fiskers Ex 2 - 28] (puzzle: Exclusion 2) |  |  | 14.3 | 
8 | GUGUAGCGAGGAUAUACAUGAGGAUCACCCAUGUGAAUAAGAUAGAAUAAGAUAAAGUGUAGAAGGUGUAGUGU [Excluse me!!! 11 - Jieux - Exclusion 3] (puzzle: Exclusion 3) |  |  | 56 | apparent KD of MS2 coat protein [2]: 46.7 nM; apparent KD of MS2 coat protein [4]: 54.5 nM
9 | GUGUGCAGAGGAUAUACAUAGGAAUAUAAUAUAAUAUAAUUACAUGAGGAUCACCCAUGUAGAAGGCUGAGUGU [Excluse me!! 18 - Jieux - Exclusion 2] (puzzle: Exclusion 2) |  |  | 24.3 | 
10 | GUGUGCUGAGGAUAUACACAGGAAUAGAAGAUAAGAUAAUCACAUGAGGAUCACCCAUGUAGAAGGCAGAGUGU [Excluse me!! 17 - Jieux - Exclusion 2] (puzzle: Exclusion 2) |  |  | 13.9 | 
11 | GUGUGCUGAGGAUAUACAGAGGAAGAUAAUAGAAUAGAAUGACAUGAGGAUCACCCAUGUAGAAGGCAGAGUGU [Excluse me!! 14 - Jieux - Exclusion 2] (puzzle: Exclusion 2) |  |  | 26.3 | apparent KD of MS2 coat protein [2]: 40.5 nM; apparent KD of MS2 coat protein [4]: 33.1 nM
12 | GUGUUUCGUGUAGGAUAUGUUUGUGGGUCGCGGGCAGAAGGACAUGAGGAUCACCCAUGUUGCGGGUUCGGUUUGUGCGGGCGC [-22, -20 kcal and 14% A] (Eterna round: R96, puzzle: Exclusion NG 1) | 23.6 | 22.3 |  | apparent KD of MS2 coat protein [1]: 17.1 nM
13 | GUUAAACAUGAGGAUCACCCAUGUAAGGAUAUGCUGAGGUAGCGCUGACGUGAAUGAAGCAGAAGGUACAAAUG [Mat - Mod of JL D64] (puzzle: Exclusion 1) |  |  | 93.3 | apparent KD of MS2 coat protein [2]: 66.4 nM; apparent KD of MS2 coat protein [4]: 62 nM
14 | GUUAACGUAGGAUAUUAGUACAUGCACAUGAGGAUCACCCAUGUUUAGUGGGUCUAGGAAUAAGAAGGGCGAUGAA [EX5 #22] (Eterna round: R97, puzzle: Exclusion 5) | 472 | 567 |  | 
15 | GUUAAGGUAGGAUAUACGAGAAUAUAGGGUAGAUAUAUAACACAUGAGGAUCACCCAUGUAGAAGGACCAAUUG [Mat - Exclusion 2 - Mod of my Tesla design - D57] (puzzle: Exclusion 2) |  |  | 33.1 | 
16 | GUUAAGGUAGGAUAUACGAUAAGAUAGGGUAGAUAUAUAACACAUGAGGAUCACCCAUGUAGAAGGACCAAUUG [Mat - Exclusion 2 - Mod of my Tesla design - D56] (puzzle: Exclusion 2) |  |  | 29.2 | 

Row | Sequence | apparent KD of MS2 coat protein (input ligand: FMN 200 uM) [nM] | apparent KD of MS2 coat protein (input ligand: none) [nM] | apparent KD of MS2 coat protein [3] [nM] | also measured
17 | GUUAAUUGUCAGAUGGGUGACAUGAGGAUCACCCAUGUCACAAGCUUUUUGCUCGUCUUAUAAUUAACCCAUCUGAC [Stov1/11-A3] (Eterna round: R97, puzzle: Sensor, turn-off variant 1) | 13.6 | 13.3 |  | 
18 | GUUACACAUGAGGAUCACCCAUGUAAGGAUAUGCUGCGGUCGCGCUGACGUGACUGCAGCAGAAGGUACACAUG (puzzle: Exclusion 1) |  |  | 86.8 | 
19 | GUUAGCGUAGGAUAUUAGUACAUGAACAUGAGGAUCACCCAUGUGAGGUGGGUCUUAGAUUAAGAAGGGCGAAGAA [EX5 #31] (Eterna round: R97, puzzle: Exclusion 5) | 387 | 447 |  | 
20 | GUUAGUUAAGGAUAUACUGGGAGCUGCGGCGUCUCGCCGCAACAUGAGGAUCACCCAUGUAGAAGGUGACCAUU [JL ViennaUCT Enbibi mod 5] (puzzle: Exclusion 2) |  |  | 221 | 
21 | GUUCCGGGAGGAUAUACAUGAGGAUCACCCAUGUUCACCAGCUUUAGCUACGACCUAUGUAGAAGGUCUGGAGA [Eternabot (L1) Solution 36] (Eterna round: R97, puzzle: Exclusion 3) | 46.7 | 39.7 |  | 
22 | GUUCGUGGGCAAGGAUAUCCUACGCUGUUCUGGUUCGUGUCUGUCACAUGAGGAUCACCCAUGUGGGAGAAGGUGCAUUUGGGU [Design 57] (Eterna round: R96, puzzle: Exclusion NG 2) | 18.9 | 20.1 |  | apparent KD of MS2 coat protein [1]: 15.1 nM
23 | GUUCUGUCAGGAUAUCAAUCCGCCUGUGAUACGCAGGCGGCUGAGAAGGGACAUGAGGAUCACCCAUGUAAAGA [jl-ex4-4.23 ViennaUCT mod] (Eterna round: R97, puzzle: Exclusion 4) | 74 | 41.2 |  | 
24 | GUUGUUUAUGUAGGAUAUGCCUGGCGUGCCUAAGCAGAAGGACAUGAGGAUCACCCAUGUAUUGCGGUCUGCGUUCAGAUCGCU [salish99_ExNG1_r4_019] (Eterna round: R96, puzzle: Exclusion NG 1) | 36.8 | 23.8 |  | apparent KD of MS2 coat protein [1]: 17.2 nM
25 | GUUUACAAGCUAAGAUCCUACAUGAGGAUCACCCAUGUGGUCCGGUGACGUGAGUCACCGGACUUAGCUCGUCUUGA [salish99_S_TOV1_R5_092] (Eterna round: R97, puzzle: Sensor, turn-off variant 1) | 32.4 | 31 |  | 
26 | GUUUAGCAAGCGAGAUCCCACAUGAGGAUCACCCAUGUGCAUCCAGAAUUACUGGGUGCAAAAGCUCGUCUUAUAUG [mod-El /newdang-1] (Eterna round: R97, puzzle: Sensor, turn-off variant 1) | 71.8 | 71.8 |  | 
27 | GUUUCACAUGAGGAUCACCCAUGUGAGGAUAUCCAUUUGUUAACCGUAGUUAAUAGAUGGAGAAGGCGCGUGAU [JRxlusion 6 - Jieux - Exclusion 1] (Eterna round: R97, puzzle: Exclusion 1) | 66.6 | 62.9 |  | 
28 | GUUUCACAUGAGGAUCACCCAUGUGAGGAUAUGUUUUUAAAAGCAAUAGUUUUUGAAAACAGAAGGCGCGUGAU [JR_Exc1_Sub008] (Eterna round: R97, puzzle: Exclusion 1) | 71.6 | 60.5 |  | 
29 | GUUUCGAGACGGAGAUCCGACAUGAGGAUCACCCAUGUCUCGCAAGCUUUUUGCUCGUCUUAUACUCCUCUGUUCUC [Elimod 46 - Jieux - Sensor, turn-off variant 1] (Eterna round: R97, puzzle: Sensor, turn-off variant 1) | 20.9 | 21.9 |  | 
30 | GUUUUAUAUGAAGGAUAUACUUAACAUGAGGAUCACCCAUGUGGUGUUGUGAGUGAGUGAGUUUAGUAGAAGGUCAAGUAUUUU [JMF's solution 56] (Eterna round: R96, puzzle: Exclusion NG 2) | 335 | 319 |  | apparent KD of MS2 coat protein [1]: 231 nM
31 | GUUUUAUAUGAAGGAUAUACUUAACAUGAGGAUCACCCAUGUGGUGUUGUGAGUGAGUGAGUUUAGUAGAAGGUCAAUUAUUUU [JMF's solution 33] (Eterna round: R96, puzzle: Exclusion NG 2) | 409 | 184 |  | apparent KD of MS2 coat protein [1]: 174 nM
32 | GUUUUCAGACGGAGAUCCUACAUGAGGAUCACCCAUGUCUCACAAGCUAAUUGCUCGUCUUAUUCUCCUCUGUUCUC [Elimod 40 - Jieux - Sensor, turn-off variant 1] (Eterna round: R97, puzzle: Sensor, turn-off variant 1) | 21.8 | 24.3 |  | 
